From publication PMC6212772

Tests used:
[1] = molecular target: T1, GST-ZBTB24 zinc finger domain (UniProt O43167 294-512); experiment: EMSA
[2] = molecular target: T1, GST-ZBTB24 zinc finger domain; experiment: competition
[3] = molecular target: T1, GST-ZBTB24 zinc finger domain; experiment: EMSA; remark: listed apart in the source

T1 sequence (O43167 294-512): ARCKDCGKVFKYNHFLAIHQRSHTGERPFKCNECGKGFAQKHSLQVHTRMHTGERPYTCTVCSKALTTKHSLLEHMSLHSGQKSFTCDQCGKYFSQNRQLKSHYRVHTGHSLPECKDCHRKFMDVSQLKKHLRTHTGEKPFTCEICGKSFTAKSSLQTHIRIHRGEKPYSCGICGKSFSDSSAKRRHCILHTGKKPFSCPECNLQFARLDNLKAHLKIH

B1: CAMKMT promoter wt (dsDNA)
DNA 1: GGGAAGAAGTTGGCAGGTCCTGGCAGGGGACGAGCTGCGGC
DNA 2: GCCGCAGCTCGTCCCCTGCCAGGACCTGCCAACTTCTTCCC
binding result [1]: binds

B2: CAMKMT promoter mut1 (dsDNA)
DNA 1: GGGAAGAAGTTGGCAGGTACTGGCAGGGGACGAGCTGCGGC
DNA 2: GCCGCAGCTCGTCCCCTGCCAGTACCTGCCAACTTCTTCCC
binding result [2]: no binding

B3: CAMKMT promoter mut2 (dsDNA)
DNA 1: GGGAAGAAGTTGGCAGATACTGGCAGTGGACGAGCTGCGGC
DNA 2: GCCGCAGCTCGTCCACTGCCAGTATCTGCCAACTTCTTCCC
binding result [2]: no binding

B4: OSTC promoter (dsDNA)
DNA 1: GTTAGAAGTCCCGCAGGTCCTTGAAGGTACACAAATCACC
DNA 2: GGTGATTTGTGTACCTTCAAGGACCTGCGGGACTTCTAAC
binding result [3]: binds

B5: CDCA7 promoter (dsDNA)
DNA 1: GGCCGTTACCACAGCTTGCAGGACCTGTGTCCCAACGCGG
DNA 2: CCGCGTTGGGACACAGGTCCTGCAAGCTGTGGTAACGGCC
binding result [3]: binds

B6: CDCA7 outside promoter motif (dsDNA)
DNA 1: GGGTGCTGGACGCAGGCGGGCGCGGGCCGACCCTCTCCAA
DNA 2: TTGGAGAGGGTCGGCCCGCGCCCGCCTGCGTCCAGCACCC
binding result [3]: no binding

B7: GAPDH promoter (dsDNA)
DNA 1: GAGCCTGGCGGGAGGCGGGGTCCGAGTCACCGCCTGCCGC
DNA 2: GCGGCAGGCGGTGACTCGGACCCCGCCTCCCGCCAGGCTC
binding result [3]: no binding
